This passage reports Kd results from the Immune Epitope Database (IEDB).

Test [1] deals with HLA-B*58:01. The test is described as follows: IEDB peptide-MHC binding, purified MHC/competitive/radioactivity; filed as Kd, often an IC50 or EC50 that approximates it; ≥ and ≤ were set here for values at or beyond the usual limits of such assays.
Test [2] addresses HLA-A*26:01. The description is as above.
For another test, the target named is HLA-B*53:01. The test is described as above. As to conditions: source organism: Dengue virus 4 Philippines/H241/1956.
Another test concerns the target HLA-B*15:17. The test can be described thus: IEDB peptide-MHC binding, purified MHC/direct/fluorescence; filed as Kd, often an IC50 or EC50 that approximates it; ≥ and ≤ were set here for values at or beyond the usual limits of such assays.
In test [3] the target is HLA-B*58:01. Described as above.
For another test, the target named is HLA-A*24:02. The test is described as follows: IEDB peptide-MHC binding, purified MHC/competitive/radioactivity; filed as Kd, often an IC50 or EC50 that approximates it; ≥ and ≤ were set here for values at or beyond the usual limits of such assays.
Test [4] deals with HLA-B*57:01. The test is described as above.
Test [5] addresses HLA-B*57:01. The test can be described thus: IEDB peptide-MHC binding, purified MHC/direct/fluorescence; filed as Kd, often an IC50 or EC50 that approximates it; ≥ and ≤ were set here for values at or beyond the usual limits of such assays. As to conditions: source organism: Influenza B virus.
For a further test, the target named is HLA-A*68:02. The test is described as follows: IEDB peptide-MHC binding, purified MHC/competitive/radioactivity; filed as Kd, often an IC50 or EC50 that approximates it; ≥ and ≤ were set here for values at or beyond the usual limits of such assays. As to conditions: source organism: Dengue virus 2 Jamaica/1409/1983.
The target in test [6] is HLA-A*01:01. The test can be described thus: IEDB peptide-MHC binding, purified MHC/direct/fluorescence; filed as Kd, often an IC50 or EC50 that approximates it; ≥ and ≤ were set here for values at or beyond the usual limits of such assays.
The target in test [7] is HLA-A*02:01. The test is described as above.
In a further test the target is HLA-A*03:01. The description is as above.
Another test deals with HLA-A*11:01. The description is as above.
Another test concerns the target HLA-A*24:03. The test is described as above.
For test [8], the target named is HLA-A*26:01. Described as above.
Another test concerns the target HLA-A*31:01. The description is as above.
Test [9] addresses HLA-A*69:01. The test is described as above.
The target of a further test is HLA-B*07:02. The test is described as above.
The target of another test is HLA-B*08:01. Described as above.
For test [10], the target named is HLA-B*15:01. The description is as above.
In the next test the target is HLA-B*27:05. The description is as above.
The target of another test is HLA-B*40:01. Described as above.
For a further test, the target named is HLA-B*44:02. The description is as above.
The target in test [11] is HLA-A*02:01. The test can be described thus: IEDB peptide-MHC binding, purified MHC/competitive/fluorescence; filed as Kd, often an IC50 or EC50 that approximates it; ≥ and ≤ were set here for values at or beyond the usual limits of such assays.
For test [12], the target named is HLA-A*26:01. The description is as above.
The target in test [13] is HLA-A*69:01. The description is as above.
In test [14] the target is HLA-B*15:01. The description is as above. The settings on record: source organism: Macaca mulatta.
In a further test the target is HLA-B*18:01. The test is described as above. As to conditions: source organism: Macaca mulatta.
For another test, the target named is HLA-B*27:03. The test is described as above.
Another test concerns the target HLA-B*39:01. Described as above.
The next test concerns the target HLA-B*46:01. The test is described as above.
In a further test the target is HLA-B*51:01. Described as above.
Test [15] deals with HLA-B*57:01. The description is as above. The settings on record: source organism: Macaca mulatta.
Test [16] addresses HLA-A*01:01. The test is described as follows: IEDB peptide-MHC binding, purified MHC/competitive/radioactivity; filed as Kd, often an IC50 or EC50 that approximates it; ≥ and ≤ were set here for values at or beyond the usual limits of such assays. As to conditions: source organism: Dengue virus 1 Brazil/97-11/1997.
The next test addresses HLA-A*23:01. Described as above. As to conditions: source organism: Dengue virus 1 Brazil/97-11/1997.
The target of the next test is HLA-A*32:01. The description is as above. As to conditions: source organism: Dengue virus 2 Jamaica/1409/1983.
The mark [17] stands for this setting: source organism: Dengue virus 3 Martinique/1243/1999.
Setting [18] is: source organism: Dengue virus 4 Philippines/H241/1956.
The mark [19] stands for this setting: source organism: Yersinia pestis.
The mark [20] stands for this setting: source organism: Dengue virus 1 Singapore/S275/1990.
[21] abbreviates: source organism: Dengue virus 1 Brazil/97-11/1997.
Setting [22] is: source organism: Influenza B virus.
Where [23] appears, read: source organism: Dengue virus 2 Jamaica/1409/1983.
The mark [24] stands for this setting: source organism: Salmonella enterica subsp. enterica serovar Typhimurium.
The mark [25] stands for this setting: source organism: Macaca mulatta.
[26] abbreviates: source organism: Dengue virus 3 Sri Lanka/1266/2000.
Setting [27] is: source organism: Salmonella enterica subsp. enterica serovar Typhi.

Usually Kd stands for the equilibrium constant for the complex coming apart.

GAVFTEENQW: in the test with HLA-B*58:01 [1] (setting [17]), the Kd amounted to 22.6 nM.
For the sequence FVIDNVHTW, the Kd in the test with HLA-A*26:01 [2] (setting [18]) was determined as 54.8 nM; in the test with HLA-B*53:01, 1.22 nM; in the test with HLA-B*58:01 [1] (setting [18]), 17.7 nM.
TSDGFINGW: the dissociation constant Kd with HLA-B*15:17 (setting [19]) was determined as 251 nM; in the test with HLA-B*58:01 [3] (setting [19]), 88 nM.
With VMASSVLLW, the Kd in the test with HLA-A*24:02 (setting [20]) worked out at 113 nM; with HLA-B*57:01 [4] (setting [20]), 6.56 nM; with HLA-B*58:01 [1] (setting [20]), 1.28 nM.
LSSLLKNDVP: the values for the Kd in the test with HLA-B*57:01 [4] (setting [21]) and in the test with HLA-B*58:01 [1] (setting [21]) were 7260 nM and 819 nM, respectively.
Regarding KSEPEGTRM, the Kd is 3500 nM in the test with HLA-B*15:17 (setting [22]), at least 20000 nM with HLA-B*57:01 [5] and 19700 nM in the test with HLA-B*58:01 [3] (setting [22]).
Regarding LTSKELMMAT, the Kd is at least 29800 nM in the test with HLA-B*57:01 [4] (setting [23]) and 1130 nM with HLA-B*58:01 [1] (setting [23]).
For the sequence NASGNIVSSV, the dissociation constant (Kd) in the test with HLA-A*68:02 was found to be 48 nM; in the test with HLA-B*57:01 [4] (setting [23]) it was 464 nM; with HLA-B*58:01 [1] (setting [23]) it was 112 nM.
For NSDYMMWVG, the equilibrium dissociation constant (Kd) in the test with HLA-A*01:01 [6] (setting [24]), in the test with HLA-A*02:01 [7] (setting [24]), in the test with HLA-A*03:01 (setting [24]), in the test with HLA-A*11:01 (setting [24]), with HLA-A*24:03 (setting [24]) and with HLA-A*26:01 [8] (setting [24]) was at least 20000 nM each time. Further, the Kd with HLA-A*31:01 (setting [24]), in the test with HLA-A*69:01 [9] (setting [24]), with HLA-B*07:02 (setting [24]), with HLA-B*08:01 (setting [24]), with HLA-B*15:01 [10] (setting [24]) and in the test with HLA-B*27:05 (setting [24]) was at least 20000 nM each time. For the same sequence, the dissociation constant Kd in the test with HLA-B*40:01 (setting [24]), in the test with HLA-B*44:02 (setting [24]) and in the test with HLA-B*58:01 [3] (setting [24]) was at least 20000 nM throughout.
Regarding LYILGLFKF, the Kd in the test with HLA-A*24:03 (source organism: Orthohantavirus hantanense) came to 115 nM.
Regarding SAEVVTLWY, the dissociation constant Kd was 1.6 nM with HLA-A*01:01 [6] (source organism: Pomacentrus moluccensis); at least 20000 nM in the test with HLA-A*02:01 [11] (setting [25]); at least 20000 nM with HLA-A*26:01 [12] (setting [25]); at least 20000 nM in the test with HLA-A*69:01 [13] (setting [25]); at least 20000 nM with HLA-B*15:01 [14]; at least 20000 nM with HLA-B*18:01. Also, the Kd with HLA-B*27:03 (setting [25]), with HLA-B*39:01 (setting [25]), in the test with HLA-B*46:01 (setting [25]), with HLA-B*51:01 (setting [25]) and with HLA-B*57:01 [15] was at least 20000 nM each time.
As to VTAKWLWGF, the Kd worked out at 13900 nM with HLA-A*01:01 [16]; 417 nM in the test with HLA-A*23:01; 241 nM with HLA-A*24:02 (setting [21]); 12800 nM with HLA-A*26:01 [2] (setting [21]); 59 nM in the test with HLA-B*58:01 [1] (setting [21]).
For KGKRIEPSW, the Kd turned out to be 13.1 nM with HLA-B*57:01 [4] (setting [23]) and 11.2 nM with HLA-B*58:01 [1] (setting [23]).
WSTIWRQLY: the equilibrium dissociation constant (Kd) with HLA-A*01:01 [6] (source organism: Mus musculus) is 10 nM; with HLA-A*02:01 [11] (source organism: Homo sapiens), at least 20000 nM; with HLA-A*26:01 [12] (source organism: Homo sapiens), at least 20000 nM; with HLA-A*69:01 [13] (source organism: Homo sapiens), at least 20000 nM; with HLA-B*27:03 (source organism: Homo sapiens) it was at least 20000 nM; with HLA-B*39:01 (source organism: Homo sapiens), at least 20000 nM. Besides, the equilibrium dissociation constant (Kd) with HLA-B*46:01 (source organism: Homo sapiens) and with HLA-B*51:01 (source organism: Homo sapiens) was at least 20000 nM in each case.
As to VASAGISYKD, the Kd in the test with HLA-B*57:01 [4] (setting [18]) worked out at 4690 nM; with HLA-B*58:01 [1] (setting [18]), 3920 nM.
For LSSKPEFCIK, the equilibrium dissociation constant (Kd) with HLA-B*58:01 [1] (setting [18]) came out at 10600 nM.
In the case of SASRAWNVWE, the Kd was 279 nM with HLA-B*57:01 [4] (setting [17]) and 53.9 nM with HLA-B*58:01 [1] (setting [17]).
For KAAVEDEEF, the Kd with HLA-B*57:01 [4] (setting [26]) is 1670 nM; in the test with HLA-B*58:01 [1] (setting [26]), 61.9 nM.
With PSEDEQQGH, the dissociation constant Kd in the test with HLA-A*01:01 [6] (setting [27]), with HLA-A*02:01 [7] (setting [27]), in the test with HLA-A*03:01 (setting [27]), in the test with HLA-A*11:01 (setting [27]), with HLA-A*24:03 (setting [27]) and in the test with HLA-A*26:01 [8] (setting [27]) was at least 20000 nM throughout. For the same sequence, the Kd in the test with HLA-A*31:01 (setting [27]), with HLA-A*69:01 [9] (setting [27]), in the test with HLA-B*07:02 (setting [27]), with HLA-B*08:01 (setting [27]), with HLA-B*15:01 [10] (setting [27]) and in the test with HLA-B*27:05 (setting [27]) was at least 20000 nM each time. Further, the Kd with HLA-B*40:01 (setting [27]), with HLA-B*44:02 (setting [27]) and with HLA-B*58:01 [3] (setting [27]) was at least 20000 nM in each case.
Turning to IGLTSRATW, the dissociation constant (Kd) in the test with HLA-B*57:01 [4] (setting [23]) amounted to 6.87 nM; in the test with HLA-B*58:01 [1] (setting [23]), 6.11 nM.
On to ILIGVIITW, for which the Kd in the test with HLA-A*32:01 was at least 23500 nM; with HLA-B*57:01 [4] (setting [23]) it was 352 nM; with HLA-B*58:01 [1] (setting [23]), 1530 nM.
Taken in the same sequence, the figures for RVLNLVENW were 21.3 nM, 2.43 nM and 1.34 nM.
